Data: article PMC12469859 (Structure (London, England : 1993), 2025)

B1: Neisseria gonorrhoeae BamD (NgBamD) (natural protein, N. gonorrhoeae FA1090, UniProt Q50985 17-267, looked up)
chain: CATQGTADKDAQITQDWSVEKLYAEAQDELNSSNYTRAVKLYEILESRFPTSRHARQSQLDTAYAYYKDDEKDKALAAIERFRRLHPQHPNMDYALYLRGLVLFNEDQSFLNKLASQDWSDRDPKANREAYQAFAELVQRFPNSKYAADATARMVKLVDALGGNEMSVARYYMKRGAYIAAANRAKKIIGSYQNTRYVEESLAILELAYKKLDKPQLAADTRRVLETNFPKSPFLTHAWQPDDMPWWRYWH
B2: Neisseria gonorrhoeae BamC (NgBamC), with the HG2 domain (natural protein, N. gonorrhoeae FA1090, UniProt A0ACH0F7W2 42-398, looked up)
chain: CSGSKTEQPKLDYQSRSHRLIKLEVPPDLNNPDQGNLYRLPAGSGAVRASDLEKRRTPAVQQPADAEVLKSVKGVRLERDGSQRWLVVDGKSPAEIWPLLKAFWQENGFDIESEEPAIGQMETEWAENRAKIPQDSLRRLFDTVGLGGIYSTGERDKFIVRIEQGKNGVSDIFFAHKAMKEVYGDKNKDTTMWQPSASDPNLEAAFLTRFMQYLGVDGRQAENALAKKPTLPAANEMARIEGKSLIVFGDYGRNWRRTGLALDRIGLTVVGQNTERHAFLVQKAPNESNAVTEQKPGLFKRLLGKGKAEKPAEQPELIVYAEPVADGSRIVLLNKDGSAYAGKDASALLGKLHSELR
B3: Neisseria gonorrhoeae BamA (NgBamA) (natural protein)
chain: FTIQDIRVEGLQRTEPSTVFNYLPVKVGDTYNDTHGSAIIKSLYATGFFDDVRVETADGQLLLTVIERPTIGSLNITGAKMLQNDAIKKNLESFGLAQSQYFNQATLNQAVAGLKEEYLGRGKLNIQITPKVTKLARNRVDIDITIDEGKSAKITDIEFEGNQVYSDRKLMRQMSLTEGGIWTWLTRSDRFDRQKFAQDMEKVTDFYQNNGYFDFRILDTDIQTNEDKTRQTIKITVHEGGRFRWGKVSIEGDTNEVPKAELEKLLTMKPGKWYERQQMTAVLGEIQNRMGSAGYAYSEISVQPLPNAGTKTVDFVLHIEPGRKIYVNEIHITGNNKTRDEVVRRELRQMESAPYDTSKLQRSKERVELLGYFDNVQFDAVPLAGTPDKVDLNMSLTERSTGSLDLSAGWVQDTGLVMSAGVSQDNLFGTGKSAALRASRSKTTLNGSLSFTDPYFTADGVSLGYDIYGKAFDPRKASTSVKQYKTTTAGGGVRMGIPVTEYDRVNFGLAAEHLTVNTYNKAPKRYADFIRKYGKTDGADGSFKGLLYKGTVGWGRNKTDSASWPTRGYLTGVNAEIALPGSKLQYYSATHNQTWFFPLSKTFTLMLGGEVGIAGGYGRTKEIPFFENFYGGGLGSVRGYESGTLGPKVYDEYGEKISYGGNKKANVSAELLFPMPGAKDARTVRLSLFADAGSVWDGRTYTAAENGNNKSVYSENAHKSTFTNELRYSAGGAVTWLSPLGPMKFSYAYPLKKKPEDEIQRFQFQLGTTF

Molecular target: T1, Neisseria gonorrhoeae BamE (NgBamE) with a C-terminal 10x histidine tag (N. gonorrhoeae FA1090, UniProt Q5F5Y8 18-125)
T1 sequence (looked up): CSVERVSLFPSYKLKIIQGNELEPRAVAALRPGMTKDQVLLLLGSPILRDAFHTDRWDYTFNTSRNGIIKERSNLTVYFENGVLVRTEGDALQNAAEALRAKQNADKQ
Assay: co-purification

| Binder | stoichiometry N |
| --- | --- |
| B1 | 1 |
| B2 | 1 |
| B3 | 1 |
